Earlier results in PMC1513386.
Like-named read-outs stand apart in the source and are kept apart here.

Assays:
Glu115 = Glu115 (UniProt position 142, SKKPKENPGPA); assay: NMR
Glu96 = Glu96 (UniProt position 123, DHYLLEFPTFP); assay: NMR
Glu73 = Glu73 (UniProt position 120, GRTWREADINY); details: not stated (values are paired with the folded structure 1A2P; ref 20 covers native and denatured states)
Asp93 = Asp93 (UniProt position 140, ILYSSDWLIYK); details: not stated (values are paired with the folded structure 1A2P; ref 20 covers native and denatured states)
Asp54 = Asp54 (UniProt position 101, KSIGGDIFSNR); details: not stated (values are paired with the folded structure 1A2P; ref 20 covers native and denatured states)
Asp101 [1] = target: Asp101 (UniProt position 148, IYKTTDHYQTF); details: not stated (values are paired with the folded structure 1A2P; ref 20 covers native and denatured states)
Asp30 = Asp30 (UniProt position 50, NQCSTDSGYSM); assay: NMR
Asp21 = Asp21 (UniProt position 41, VSILSDASFNQ); assay: NMR
Asp72 = Asp72 (UniProt position 92, NPPNCDLTVPT); assay: NMR
Asp101 [2] = target: Asp101 (UniProt position 129, GTVKSDGGTYD)
Asp106 = Asp106 (UniProt position 134, DGGTYDIYTTT)
Asp11 = Asp11 (UniProt position 39, WQNWTDGGGIV)
Asp83 = Asp83 (UniProt position 111, EYYVVDSWGTY)
Glu172 = Glu172 (UniProt position 200, QVMATEGYQSS)
Glu2 = Glu2 (UniProt position 2, ----MENLNMD); assay: NMR
Asp7 = Asp7 (UniProt position 7, ENLNMDLLYMA); assay: NMR
Asp61 = Asp61 (UniProt position 61, VMGLVDAIPMI); assay: NMR
Glu37 = Glu37 (UniProt position 37, GGKFLEGAARQ); assay: NMR
Asp44 = Asp44 (UniProt position 44, AARQPDLIPLL); assay: NMR
Asp87 = Asp87 (UniProt position 105, ALLSSDITASV); assay: NMR
Asp48 = Asp48 (UniProt position 66, TNRNTDGSTDY); assay: NMR
Asp18 = Asp18 (UniProt position 36, KRLGLDNYRGY); assay: NMR
Glu7 = Glu7 (UniProt position 25, VYGRCELAAAM); assay: NMR
Glu35 = Glu35 (UniProt position 53, CAAKFESNFNT); assay: NMR
Asp66 = Asp66 (UniProt position 84, RWWCNDGRTPG); assay: NMR
Asp10 = Asp10 (UniProt position 10, VEIFTDGSCLG); assay: NMR
Asp70 = Asp70 (UniProt position 70, VILSTDSQYVR); assay: NMR
Asp148 = Asp148 (UniProt position 148, NPTLEDTGYQV); assay: NMR
Asp102 = Asp102 (UniProt position 102, PVKNVDLWQRL); assay: NMR
Asp59 = Asp59 (UniProt position 80, VCCSTDKCN--)
Glu68 = Glu68 (UniProt position 68, QDVASECEVKC)
Asp26 = Asp26 (UniProt position 26, KLVVVDFSATW)
Glu6 = Glu6 (UniProt position 6, MVKQIESKTAF); details: listed under PDB 1TRS; redox state not stated in the article, and 1TRS is the oxidised form (inferred)
[3] = listed under PDB 1TRS, redox state not stated in the article, and 1TRS is the oxidised form (inferred)
[4] = listed under PDB 1TRW, redox state not stated in the article, and 1TRW is the reduced form (inferred)

Alpha-sarcin (cytotoxic ribonuclease) (Aspergillus giganteus)
pKa (Glu115): 4.90
pKa (Glu96): 5.10

Barnase (ribonuclease) (Bacillus amyloliquefaciens)
pKa (Glu73): 2.10
pKa (Asp93): 2.00
pKa (Asp54): 2.00
pKa (Asp101 [1]): 2.00

Beta-elicitin cryptogein (Phytophthora cryptogea)
pKa (Asp30): 2.50
pKa (Asp21): 2.50
pKa (Asp72): 2.60

Endo-1,4-beta-xylanase (Bacillus circulans xylanase) (Bacillus circulans)
pKa (Asp101 [2]): 2.00
pKa (Asp106): 2.70
pKa (Asp11): 2.50
pKa (Asp83): 2.00
pKa (Glu172): 6.70

F1Fo ATP synthase subunit c (Escherichia coli)
pKa (Glu2): 5.50
pKa (Asp7): 5.60
pKa (Asp61): 7.00
pKa (Glu37): 5.50
pKa (Asp44): 5.60

Lysozyme C (turkey egg white) (Meleagris gallopavo)
pKa (Asp87): 2.10
pKa (Asp48): 2.50
pKa (Asp18): 2.70
pKa (Glu7): 2.70
pKa (Glu35): 6.10
pKa (Asp66): 2.00

Ribonuclease HI (Escherichia coli)
pKa (Asp10): 6.10
pKa (Asp70): 2.60
pKa (Asp148): 2.00
pKa (Asp102): 2.00

Snake cardiotoxin (PDB 1KXI, cardiotoxin V / A5) (Naja atra)
pKa (Asp59): 2.30

Thioredoxin (Homo sapiens)
pKa (Glu68; [3]): 5.10
pKa (Glu68; [4]): 4.90
pKa (Asp26; [3]): 8.10
pKa (Asp26; [4]): 9.90
pKa (Glu6): 4.90
